Substitutions are numbered along the chain they refer to.
B1: Hu 52H5D3B8-1 (antibody, V domains shown)
VH: EVQLVQSGAEVKKPGASVKVSCKASGYTFTDYEMHWVRQAPGQGLEWMGAIHPGSGGTAYNQKFKGRVTMTRDTSISTAYMELSRLRSDDTAVYYCARFYSYAYWGQGTLVTVSS
VL: DVVMTQTPLSLSVTPGQPASISCRSSQSLVHSNGNTYLQWYLQKPGQSPQLLIYKVSNRFSGVPDRFSGSGSGTDFTLKISRVEAEDVGVYYCSQSIHVPYTFGGGTKVEIK
notes: humanized 52H5D3B8; also called 52H5D3B8 VH0 + VL0
B2: Hu 52H5D3B8-3 (antibody, V domains shown)
VH: B1 VH with A97T
VL: B1 VL
notes: humanized 52H5D3B8; also called 52H5D3B8 VH1 + VL0
B3: Hu 52H5D3B8-4 (antibody, V domains shown)
VH: B1 VH with A97T
VL: B1 VL with Y92F
notes: humanized 52H5D3B8; also called 52H5D3B8 VH1 + VL1
B4: Hu 52H5D3B8-5 (antibody, V domains shown)
VH: B1 VH with R72A, A97T
VL: B1 VL
notes: humanized 52H5D3B8; also called 52H5D3B8 VH2 + VL0
B5: 52H5D3B8-6#-VH1+VL3 (antibody, V domains shown)
VH: B1 VH with E1Q, I76T, A79V, R85S, D89E, F99Y
VL: B1 VL with V2I, Q50K, S94F, V109L
notes: humanized
B6: 52H5D3B8-6#-VH1+VL4 (antibody, V domains shown)
VH: B1 VH with E1Q, I76T, A79V, R85S, D89E, F99Y
VL: B1 VL with V2I, Q50K, Y92F, S94F, V109L
notes: humanized
B7: 52H5D3B8-6#-VH2+VL2 (antibody, V domains shown)
VH: B1 VH with E1Q, M48I, R72A, I76T, A79V, R85S, D89E, A97T, F99Y
VL: B1 VL with V2I, Y92F, S94F, V109L
notes: humanized
B8: 52H5D3B8-6#-VH2+VL4 (antibody, V domains shown)
VH: B1 VH with E1Q, M48I, R72A, I76T, A79V, R85S, D89E, A97T, F99Y
VL: B1 VL with V2I, Q50K, Y92F, S94F, V109L
notes: humanized
B9: 52H5D3B8-6#-VH3+VL1 (antibody, V domains shown)
VH: QVQLVQSGAEVKKPGASVKVSCKALGYTFTDYEMHWVKQAPGQGLEWIGAIHPGSGGTAYNQKFKGRVTLTADTSTSTVYMELSSLRSEDTAVYYCTRYYSYAYWGQGTLVTVSS
VL: B1 VL with V2I, S94F, V109L
notes: humanized
B10: 52H5D3B8-6#-VH3+VL2 (antibody, V domains shown)
VH: B9 VH
VL: B1 VL with V2I, Y92F, S94F, V109L
notes: humanized

Biological target: T1, human GPC3 on cells (human, UniProt P51654 25-554)
T1 construct: whole, on cells; over-expressed on CHOK1 cells or endogenous on HEPG2, Hep3B and Huh-7 hepatocellular carcinoma cells; the cell line is named under assay; also called GPC3-CHOK1 cells; human GPC3 over-expressed CHOK1 cells
Assay: FACS, Huh-7 cells
Procedure: (§1) To evaluate the antigen binding property, the humanized antibodies were analyzed for their binding to human GPC3 over-expressed CHOK1 cells and Huh-7 cells by FACS. Briefly, GPC3-CHOK1 cells and Huh-7 cells were firstly incubated with Fc blocking reagent at 4° C. for 15 mins. Cells were washed by FACS buffer and divided to each well with 4-fold serially diluted humanized antibodies starting at 10 μg/mL at 4° C. for 60 mins. Cells were washed by FACS buffer and fixed with 2% PFA at RT for 15 mins. […] As different plates might affect the EC50 of 52H5D3B8-VH+VL, the 12 humanized antibodies were separated into two plates.

Question: B1 was tested. Which EC50 did it give?
Answer: 0.0243 µg/mL

Question: With B2 as the binder, how does the EC50 read?
Answer: 0.0213 µg/mL

Question: For B3, which EC50 is on record?
Answer: 0.0196 µg/mL

Question: Which EC50 does the source give for B4 here?
Answer: 0.0402 µg/mL

Biological target: T1, human GPC3 on cells
Assay: FACS, Huh-7 cells
Remark: another data set of the same source
Procedure: as §1, with “CHOK1 cells, HEPG2 cells, Hep3B” for “CHOK1”, “GPC3-CHOK1 cells, HEPG2 cells, Hep3B” for “GPC3-CHOK1”, “The 16” for “As different plates might affect the EC50 of 52H5D3B8-VH+VL, the 12”

Question: With B5 as the binder, how does the EC50 read?
Answer: 0.0265 µg/mL

Question: How did the EC50 turn out when B6 was run?
Answer: 0.0268 µg/mL

Question: For B7, which EC50 is on record?
Answer: 0.0434 µg/mL

Question: B8 was tested. Which EC50 did it give?
Answer: 0.0381 µg/mL

Question: B9 was tested. Which EC50 did it give?
Answer: 0.0413 µg/mL

Question: B10 was tested. Which EC50 did it give?
Answer: 0.0411 µg/mL

Biological target: T1, human GPC3 on cells
Assay: FACS, HEPG2 cells
Procedure: as §1, with “CHOK1 cells, HEPG2 cells, Hep3B” for “CHOK1”, “GPC3-CHOK1 cells, HEPG2 cells, Hep3B” for “GPC3-CHOK1”, “The 16” for “As different plates might affect the EC50 of 52H5D3B8-VH+VL, the 12”

Question: B5 was tested. Which EC50 did it give?
Answer: 0.0387 µg/mL

Question: Which EC50 does the source give for B6 here?
Answer: 0.0391 µg/mL

Question: How did the EC50 turn out when B7 was run?
Answer: 0.0481 µg/mL

Question: For B8, which EC50 is on record?
Answer: 0.0438 µg/mL

Question: For B9, which EC50 is on record?
Answer: 0.0471 µg/mL

Question: With B10 as the binder, how does the EC50 read?
Answer: 0.0444 µg/mL

Biological target: T1, human GPC3 on cells
Assay: FACS, Hep3B cells
Procedure: as §1, with “CHOK1 cells, HEPG2 cells, Hep3B” for “CHOK1”, “GPC3-CHOK1 cells, HEPG2 cells, Hep3B” for “GPC3-CHOK1”, “The 16” for “As different plates might affect the EC50 of 52H5D3B8-VH+VL, the 12”

Question: Which EC50 does the source give for B5 here?
Answer: 0.0529 µg/mL

Question: With B6 as the binder, how does the EC50 read?
Answer: 0.0545 µg/mL

Question: With B7 as the binder, how does the EC50 read?
Answer: 0.0846 µg/mL

Question: B8 was tested. Which EC50 did it give?
Answer: 0.0632 µg/mL

Question: With B9 as the binder, how does the EC50 read?
Answer: 0.0738 µg/mL

Question: Which EC50 does the source give for B10 here?
Answer: 0.0786 µg/mL

Biological target: T2, human GPC3-his tag protein (human, UniProt P51654 25-559, limits assumed)
T2 construct: recombinant soluble antigen used as analyte in all Biacore runs; also called recombinant GPC3 protein; rhGPC3-His; not shown: His tag
Assay: SPR Biacore 8K, mAb captured, affinity ranking
Procedure: To evaluate antigen binding activity, the chimeric antibody's affinity was measured by Biacore 8K. A serial dilution of human GPC3-his tag protein was injected over captured chimeric antibody 52H5D3B8-6 #-VH+VL for 3 mins at a flow rate of 30 μl/min. The antigen was allowed to dissociate for 720 s. Among the multi detection doses, two concentrations with most close affinity to the chimeric antibody's affinity were chosen for the 16 humanized antibodies' affinity detection.

Question: B5 was tested. Which Kd did it give?
Answer: 1.74 nM

Question: And the koff?
Answer: 0.000975 s⁻¹

Question: And the kon?
Answer: 561000 M⁻¹ s⁻¹

Question: Which Kd does the source give for B6 here?
Answer: 1.74 nM

Question: What about the koff of the same binder?
Answer: 0.000947 s⁻¹

Question: And the kon?
Answer: 546000 M⁻¹ s⁻¹

Question: With B7 as the binder, how does the Kd read?
Answer: 1.15 nM

Question: And the koff?
Answer: 0.000749 s⁻¹

Question: And the kon?
Answer: 651000 M⁻¹ s⁻¹

Question: With B8 as the binder, how does the Kd read?
Answer: 0.994 nM

Question: What about the koff of the same binder?
Answer: 0.000645 s⁻¹

Question: What about the kon of the same binder?
Answer: 648000 M⁻¹ s⁻¹

Question: B9 was tested. Which Kd did it give?
Answer: 0.838 nM

Question: And the koff?
Answer: 0.000578 s⁻¹

Question: And the kon?
Answer: 689000 M⁻¹ s⁻¹

Question: What does the source list for B10?
Answer: Kd: 0.883 nM; koff: 0.000587 s⁻¹; kon: 664000 M⁻¹ s⁻¹

Biological target: T1, human GPC3 on cells
Assay: FACS, GPC3-CHOK1 cells
Procedure: as §1, with “CHOK1 cells, HEPG2 cells, Hep3B” for “CHOK1”, “GPC3-CHOK1 cells, HEPG2 cells, Hep3B” for “GPC3-CHOK1”, “The 16” for “As different plates might affect the EC50 of 52H5D3B8-VH+VL, the 12”

Question: With B5 as the binder, how does the EC50 read?
Answer: 0.0341 µg/mL

Question: For B6, which EC50 is on record?
Answer: 0.0308 µg/mL

Question: With B7 as the binder, how does the EC50 read?
Answer: 0.043 µg/mL

Question: For B8, which EC50 is on record?
Answer: 0.041 µg/mL

Question: How did the EC50 turn out when B9 was run?
Answer: 0.0373 µg/mL

Question: For B10, which EC50 is on record?
Answer: 0.0429 µg/mL

Biological target: T1, human GPC3 on cells
Assay: FACS, GPC3-CHOK1 cells
Remark: another data set of the same source
Procedure: as §1

Question: B1 was tested. Which EC50 did it give?
Answer: 0.0404 µg/mL

Question: B2 was tested. Which EC50 did it give?
Answer: 0.0387 µg/mL

Question: With B3 as the binder, how does the EC50 read?
Answer: 0.0324 µg/mL

Question: With B4 as the binder, how does the EC50 read?
Answer: 0.0544 µg/mL

Biological target: T2, human GPC3-his tag protein
Assay: SPR Biacore, mAb captured on CM5, GPC3-his dilution series (full kinetics)
Procedure: The binding of the humanized antibodies to recombinant GPC3 protein (human GPC3-his tag) was tested by Biacore using a capture method. 52H5D3B8-6 #-V+VL, 52H5D3B8-6 #-VH1+VL1, 52H5D3B8-6 #-VH1+VL3, 52H5D3B8-6 #-V1+VL4, 52H5D3B8-6 #-VH2+VL4, 52H5D3B8-6 #-VH3+VL1, 52H5D3B8-6 #-VH3+VL3 mAbs were captured using CM5 sensor chip. A serial dilution of human GPC3-his tag protein was injected over captured antibody for 2 mins at a flow rate of […]. The antigen was allowed to dissociate for 360 s. All the experiments were carried out on a Biacore T200.

Question: B5 was tested. Which Kd did it give?
Answer: 1.76 nM

Question: And the koff?
Answer: 0.000872 s⁻¹

Question: And the kon?
Answer: 494000 M⁻¹ s⁻¹

Question: B6 was tested. Which Kd did it give?
Answer: 1.85 nM

Question: What about the koff of the same binder?
Answer: 0.000984 s⁻¹

Question: And the kon?
Answer: 532000 M⁻¹ s⁻¹

Question: For B8, which Kd is on record?
Answer: 1.12 nM

Question: What about the koff of the same binder?
Answer: 0.000669 s⁻¹

Question: And the kon?
Answer: 599000 M⁻¹ s⁻¹

Question: How did the Kd turn out when B9 was run?
Answer: 1 nM

Question: What about the koff of the same binder?
Answer: 0.000579 s⁻¹

Question: And the kon?
Answer: 579000 M⁻¹ s⁻¹

Biological target: T2, human GPC3-his tag protein
Assay: SPR Biacore 8K, mAb captured, affinity ranking
Remark: another data set of the same source
Procedure: To evaluate antigen binding activity, the chimeric antibody's affinity was measured by Biacore 8K. Two concentrations with most close affinity to the chimeric antibody's affinity were chosen for the 12 humanized antibodies' affinity detection. Human GPC3-his tag protein was injected over captured antibody for 3 mins at a flow rate of 30 μl/min. The antigen was allowed to dissociate for 720 s.

Question: How did the Kd turn out when B1 was run?
Answer: 6.33 nM

Question: And the koff?
Answer: 0.00161 s⁻¹

Question: What about the kon of the same binder?
Answer: 255000 M⁻¹ s⁻¹

Question: What does the source list for B2?
Answer: Kd: 4.34 nM; koff: 0.00176 s⁻¹; kon: 405000 M⁻¹ s⁻¹

Question: Which Kd does the source give for B3 here?
Answer: 4.6 nM

Question: What about the koff of the same binder?
Answer: 0.00164 s⁻¹

Question: What about the kon of the same binder?
Answer: 357000 M⁻¹ s⁻¹

Question: How did the Kd turn out when B4 was run?
Answer: 2.87 nM

Question: And the koff?
Answer: 0.000916 s⁻¹

Question: And the kon?
Answer: 319000 M⁻¹ s⁻¹
